Reference: PMC4764579 (2016)

Biological target: TRPV1 (Rattus norvegicus, UniProt O35433)
Assay: electrophysiology, Hill fit

Chain of TRPV1 (O35433 whole entry): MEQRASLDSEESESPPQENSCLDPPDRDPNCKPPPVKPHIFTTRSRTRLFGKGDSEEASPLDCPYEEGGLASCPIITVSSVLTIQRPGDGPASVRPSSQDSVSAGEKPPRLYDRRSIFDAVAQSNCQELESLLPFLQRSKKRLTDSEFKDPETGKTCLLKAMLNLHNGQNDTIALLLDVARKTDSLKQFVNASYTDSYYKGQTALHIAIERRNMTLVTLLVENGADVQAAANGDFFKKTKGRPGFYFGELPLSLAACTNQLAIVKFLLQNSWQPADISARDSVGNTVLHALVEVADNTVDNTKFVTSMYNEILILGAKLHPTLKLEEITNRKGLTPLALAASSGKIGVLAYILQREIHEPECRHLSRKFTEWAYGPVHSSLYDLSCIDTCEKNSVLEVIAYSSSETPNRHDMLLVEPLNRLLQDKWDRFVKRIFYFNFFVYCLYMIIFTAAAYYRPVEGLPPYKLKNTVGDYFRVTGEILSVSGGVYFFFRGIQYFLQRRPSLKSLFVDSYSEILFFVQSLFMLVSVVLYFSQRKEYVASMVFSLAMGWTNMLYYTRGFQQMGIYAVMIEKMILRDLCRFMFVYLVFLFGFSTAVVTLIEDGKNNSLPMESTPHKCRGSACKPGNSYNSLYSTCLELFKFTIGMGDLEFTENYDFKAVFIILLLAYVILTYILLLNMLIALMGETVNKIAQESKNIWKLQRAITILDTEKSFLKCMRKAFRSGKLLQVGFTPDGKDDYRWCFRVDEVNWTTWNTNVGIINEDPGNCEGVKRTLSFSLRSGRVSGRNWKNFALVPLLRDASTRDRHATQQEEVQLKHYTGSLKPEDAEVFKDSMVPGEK

B1: double-knot toxin (DkTx) K2 knot (peptide)
chain: TNCAKEGEVCGWGSKCCHGLDCPLAFIPYC
- Kd: 8.5 µM
